Blank lines part the entries; values can stand above or below the binder they belong to. No end group written: not given here.
Assays:
[1] = target: type I collagen of the SIS membrane; assay: CLSM, SIS membrane soaked in 200 µM chimeric peptide solution (H-pSIS)
[2] = target: type III collagen of the SIS membrane; assay: as above

- fluorescent area of the SIS membrane [1]: > 85%
B1: P10 polypeptide (TKKTLRT+linker-1+JH8194) (peptide)
peptide: TKKTLRTGGGGSGGGGSKRLFRRWQWRMKKY
modifications: also: fluorescent label FITC or rhodamine B (paragraphs differ), position not given here

- fluorescent area of the SIS membrane [1]: > 85%
B2: P9 polypeptide (TKKTLRT+linker-1+Hst1) (peptide)
peptide: TKKTLRTGGGGSGGGGSSHREFPFYGDYGS
modifications: also: fluorescent label FITC or rhodamine B (paragraphs differ), position not given here

- fluorescent area of the SIS membrane [2]: > 85%
B3: P11 polypeptide (KELNLVY+linker-1+Hst1) (peptide)
peptide: KELNLVYGGGGSGGGGSSHREFPFYGDYGS
modifications: also: fluorescent label rhodamine B or FITC (paragraphs differ), position not given here

- fluorescent area of the SIS membrane [2]: > 85%
B4: P12 polypeptide (KELNLVY+linker-1+JH8194) (peptide)
peptide: KELNLVYGGGGSGGGGSKRLFRRWQWRMKKY
modifications: also: fluorescent label rhodamine B or FITC (paragraphs differ), position not given here

Source: patent US20240424167A1
